B1: T4 bacteriophage gp43(exo-) exonuclease-deficient DNA polymerase (D219A) (enzyme, bacteriophage T4)
chain: MKEFYISIETVGNNIVERYIDENGKERTREVEYLPTMFRHCKEESKYKDIYGKNCAPQKFPSMKDARDWMKRMEDIGLEALGMNDFKLAYISDTYGSEIVYDRKFVRVANCDIEVTGDKFPDPMKAEYEIDAITHYDSIDDRFYVFDLLNSMYGSVSKWDAKLAAKLDCEGGDEVPQEILDRVIYMPFDNERDMLMEYINLWEQKRPAIFTGWNIEGFAVPYIMNRVKMILGERSMKRFSPIGRVKSKLIQNMYGSKEIYSIDGVSILDYLDLYKKFAFTNLPSFSLESVAQHETKKGKLPYDGPINKLRETNHQRYISYNIIDVESVQAIDKIRGFIDLVLSMSYYAKMPFSGVMSPIKTWDAIIFNSLKGEHKVIPQQGSHVKQSFPGAFVFEPKPIARRYIMSFDLTSLYPSIIRQVNISPETIRGQFKVHPIHEYIAGTAPKPSDEYSCSPNGWMYDKHQEGIIPKEIAKVFFQRKDWKKKMFAEEMNAEAIKKIIMKGAGSCSTKPEVERYVKFSDDFLNELSNYTESVLNSLIEECEKAATLANTNQLNRKILINSLYGALGNIHFRYYDLRNATAITIFGQVGIQWIARKINEYLNKVCGTNDEDFIAAGDTDSVYVCVDKVIEKVGLDRFKEQNDLVEFMNQFGKKKMEPMIDVAYRELCDYMNNREHLMHMDREAISCPPLGSKGVGGFWKAKKRYALNVYDMEDKRFAEPHLKIMGMETQQSSTPKAVQEALEESIRRILQEGEESVQEYYKNFEKEYRQLDYKVIAEVKTANDIAKYDDKGWPGFKCPFHIRGVLTYRRAVSGLGVAPILDGNKVMVLPLREGNPFGDKCIAWPSGTELPKEIRSDVLSWIDHSTLFQKSFVKPLAGMCESAGMDYEEKASLDFLFG
notes: DNA polymerase gp43 of bacteriophage T4 with the exonuclease-deficient mutation D219A; also called gp43 polymerase; T4 polymerase; source: E. coli BL21(DE3), purified (chitin resin with intein-mediated cleavage, heparin)
B2: dimer-interface mutant gp43(exo-) polymerase (D75R, Q430E, K432E in gp43(exo-) D219A) (enzyme, bacteriophage T4)
chain: MKEFYISIETVGNNIVERYIDENGKERTREVEYLPTMFRHCKEESKYKDIYGKNCAPQKFPSMKDARDWMKRMERIGLEALGMNDFKLAYISDTYGSEIVYDRKFVRVANCDIEVTGDKFPDPMKAEYEIDAITHYDSIDDRFYVFDLLNSMYGSVSKWDAKLAAKLDCEGGDEVPQEILDRVIYMPFDNERDMLMEYINLWEQKRPAIFTGWNIEGFAVPYIMNRVKMILGERSMKRFSPIGRVKSKLIQNMYGSKEIYSIDGVSILDYLDLYKKFAFTNLPSFSLESVAQHETKKGKLPYDGPINKLRETNHQRYISYNIIDVESVQAIDKIRGFIDLVLSMSYYAKMPFSGVMSPIKTWDAIIFNSLKGEHKVIPQQGSHVKQSFPGAFVFEPKPIARRYIMSFDLTSLYPSIIRQVNISPETIRGEFEVHPIHEYIAGTAPKPSDEYSCSPNGWMYDKHQEGIIPKEIAKVFFQRKDWKKKMFAEEMNAEAIKKIIMKGAGSCSTKPEVERYVKFSDDFLNELSNYTESVLNSLIEECEKAATLANTNQLNRKILINSLYGALGNIHFRYYDLRNATAITIFGQVGIQWIARKINEYLNKVCGTNDEDFIAAGDTDSVYVCVDKVIEKVGLDRFKEQNDLVEFMNQFGKKKMEPMIDVAYRELCDYMNNREHLMHMDREAISCPPLGSKGVGGFWKAKKRYALNVYDMEDKRFAEPHLKIMGMETQQSSTPKAVQEALEESIRRILQEGEESVQEYYKNFEKEYRQLDYKVIAEVKTANDIAKYDDKGWPGFKCPFHIRGVLTYRRAVSGLGVAPILDGNKVMVLPLREGNPFGDKCIAWPSGTELPKEIRSDVLSWIDHSTLFQKSFVKPLAGMCESAGMDYEEKASLDFLFG
notes: DNA polymerase gp43 of bacteriophage T4 with D219A (exo-) and the three dimer-interface mutations D75R, Q430E and K432E; PDB 9EA3 holds this mutant; the other three entries hold its parent m1; also called dimer-interface mutant polymerase; mutant polymerase; source: E. coli BL21(DE3), purified (chitin resin with intein-mediated cleavage, heparin)
B3: T4 bacteriophage gp45 sliding clamp (natural protein, bacteriophage T4)
chain: MKLSKDTTALLKNFATINSGIMLKSGQFIMTRAVNGTTYAEANISDVIDFDVAIYDLNGFLGILSLVNDDAEISQSEDGNIKIADARSTIFWPAADPSTVVAPNKPIPFPVASAVTEIKAEDLQQLLRVSRGLQIDTIAITVKEGKIVINGFNKVEDSALTRVKYSLTLGDYDGENTFNFIINMANMKMQPGNYKLLLWAKGKQGAAKFEGEHANYVVALEADSTHDF
notes: sliding clamp gp45 of bacteriophage T4, wild type, homotrimeric ring; also called wt-gp45 clamp; gp45 clamp; source: E. coli BL21(DE3), pET26b, purified (hydroxyapatite, anion exchange)

Several values for one entry are separate records, joined by “and”; a condition that tells them apart may be missing. Identical values can stand only once.

Data set [1] deals with the molecule itself. As to the kind of experiment: cryo-EM structure; 10 μM gp45 clamp mixed with 5 μM primer/template DNA (20 mM HEPES pH 7.5, 150 mM KOAc, 10 mM MgCl2, 0.5 mM ddTTP, 2 mM DTT; 10 min, 30°C), then 6 μM gp43 polymerase added (10 min room temperature, 1 h on ice); no clamp loader.
The target in data set [2] is B3. The description is as above. Particulars: both partners purified.
For data set [3], the target named is B1. Described as above. Particulars: both partners purified.
For data set [4], the target named is B2. Described as above. The following applies: both partners purified.
The target in data set [5] is T1, gp43(exo-) DNA polymerase;gp45 sliding clamp (wt) (T4 bacteriophage;T4 bacteriophage, UniProt P04415;P04525 1-898;1-228, D219A|).
T1 sequence 1: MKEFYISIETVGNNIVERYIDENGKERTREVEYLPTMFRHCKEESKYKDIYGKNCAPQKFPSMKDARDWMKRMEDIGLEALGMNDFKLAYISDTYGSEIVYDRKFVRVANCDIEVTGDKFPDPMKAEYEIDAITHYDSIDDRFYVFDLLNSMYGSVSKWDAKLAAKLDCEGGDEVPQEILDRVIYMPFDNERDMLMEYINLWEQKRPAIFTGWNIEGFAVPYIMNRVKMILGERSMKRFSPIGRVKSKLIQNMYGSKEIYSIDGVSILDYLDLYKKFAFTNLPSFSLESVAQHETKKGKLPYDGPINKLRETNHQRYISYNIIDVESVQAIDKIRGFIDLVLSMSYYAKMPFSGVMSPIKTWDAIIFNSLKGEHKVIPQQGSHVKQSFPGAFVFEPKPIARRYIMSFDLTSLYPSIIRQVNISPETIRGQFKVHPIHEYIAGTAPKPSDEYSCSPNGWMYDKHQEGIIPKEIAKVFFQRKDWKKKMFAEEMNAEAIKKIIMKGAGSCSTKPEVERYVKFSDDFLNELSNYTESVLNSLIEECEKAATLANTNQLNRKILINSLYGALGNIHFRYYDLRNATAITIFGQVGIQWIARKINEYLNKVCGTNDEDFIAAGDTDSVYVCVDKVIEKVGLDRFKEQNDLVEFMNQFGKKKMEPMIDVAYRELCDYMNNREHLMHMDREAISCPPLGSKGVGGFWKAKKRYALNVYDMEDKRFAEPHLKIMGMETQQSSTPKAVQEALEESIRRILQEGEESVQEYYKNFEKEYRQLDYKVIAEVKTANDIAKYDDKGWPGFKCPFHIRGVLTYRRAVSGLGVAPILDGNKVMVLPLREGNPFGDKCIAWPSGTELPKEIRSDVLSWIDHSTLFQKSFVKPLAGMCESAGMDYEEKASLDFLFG
T1 sequence 2: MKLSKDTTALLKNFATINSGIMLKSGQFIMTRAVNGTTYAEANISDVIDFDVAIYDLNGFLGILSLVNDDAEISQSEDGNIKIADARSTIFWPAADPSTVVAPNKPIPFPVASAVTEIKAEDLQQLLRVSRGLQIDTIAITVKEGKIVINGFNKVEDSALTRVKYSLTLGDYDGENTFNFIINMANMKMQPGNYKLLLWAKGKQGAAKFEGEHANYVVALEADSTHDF
The data set is described as follows: cryo-EM; ddTTP; two-polymerase complex state 1; DNA at right polymerase, primer end outside both active sites; cryo-EM assembly: 1.2 polymerase : 2 clamp : 1 DNA (molar) with ddTTP; proteins purified in HEPES pH 7.8 buffers; assembly salt and temperature not given in material. The following applies: protein: recombinant;recombinant; chain copies: 2;3; primer-template; 13 nt 5' template overhang, 25 bp duplex.

Data set [6] has as its target T2, dimer-interface mutant gp43(exo-) DNA polymerase;gp45 sliding clamp (wt) (T4 bacteriophage;T4 bacteriophage, UniProt P04415;P04525 1-898;1-228, D219A;D75R;Q430E;K432E|).
T2 sequence 1: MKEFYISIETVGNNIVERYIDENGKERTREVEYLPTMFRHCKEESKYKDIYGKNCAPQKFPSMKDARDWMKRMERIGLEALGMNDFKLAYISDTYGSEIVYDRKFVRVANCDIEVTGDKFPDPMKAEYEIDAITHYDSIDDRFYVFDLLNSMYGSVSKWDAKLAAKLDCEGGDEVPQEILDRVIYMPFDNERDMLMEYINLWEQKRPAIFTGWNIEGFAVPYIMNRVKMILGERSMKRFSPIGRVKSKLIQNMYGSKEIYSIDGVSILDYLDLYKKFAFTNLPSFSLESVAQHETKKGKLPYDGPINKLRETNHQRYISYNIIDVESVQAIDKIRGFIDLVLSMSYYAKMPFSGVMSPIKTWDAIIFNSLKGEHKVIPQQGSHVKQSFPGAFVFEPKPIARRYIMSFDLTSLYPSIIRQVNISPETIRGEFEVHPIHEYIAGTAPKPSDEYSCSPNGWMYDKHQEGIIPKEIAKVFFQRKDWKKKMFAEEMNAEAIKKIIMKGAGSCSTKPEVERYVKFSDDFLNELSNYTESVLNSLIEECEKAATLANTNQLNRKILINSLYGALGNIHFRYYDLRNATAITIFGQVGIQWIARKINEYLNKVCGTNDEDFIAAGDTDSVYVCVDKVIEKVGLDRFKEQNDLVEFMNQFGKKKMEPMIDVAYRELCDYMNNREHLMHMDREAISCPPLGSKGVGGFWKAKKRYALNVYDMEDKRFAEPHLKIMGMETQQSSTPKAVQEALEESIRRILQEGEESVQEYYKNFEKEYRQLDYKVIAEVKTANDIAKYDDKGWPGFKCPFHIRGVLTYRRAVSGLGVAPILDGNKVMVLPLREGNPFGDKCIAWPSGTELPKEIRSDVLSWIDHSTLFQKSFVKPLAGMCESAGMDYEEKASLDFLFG
T2 sequence 2: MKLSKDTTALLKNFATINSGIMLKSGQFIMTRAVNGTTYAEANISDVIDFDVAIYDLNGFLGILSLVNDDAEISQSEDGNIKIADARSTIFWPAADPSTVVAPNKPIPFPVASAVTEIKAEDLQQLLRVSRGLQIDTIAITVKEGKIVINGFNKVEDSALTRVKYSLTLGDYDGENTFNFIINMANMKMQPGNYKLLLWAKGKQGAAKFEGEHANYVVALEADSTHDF
As to the kind of experiment: cryo-EM; ddTTP; one-polymerase holoenzyme, 4.0 A; cryo-EM assembly: 1.2 polymerase : 2 clamp : 1 DNA (molar) with ddTTP; proteins purified in HEPES pH 7.8 buffers; assembly salt and temperature not given in material. The following applies: protein: recombinant;recombinant; tags: self-cleaving intein chitin tag, removed;; copies: 1;3; primer-template; 13 nt 5' template overhang, 25 bp duplex.

The results in this text go back to PMC12746103, “Structural insights into the exchange mechanism of a replicative DNA polymerase” (Nucleic Acids Research, 2025).

As usually defined, the stoichiometry N is a count of units in the complex or per binding partner.

On to B1, for which the “stoichiometry N” value was 2 in data set [1]; 1 polymerase per clamp ring and 2 polymerases per clamp ring in data set [2].
In the case of B2, the “stoichiometry N” value in data set [2] was 1 polymerase per clamp ring.
For the molecule B3, the binding result in data set [3] and in data set [4] was “binds” in each case.

B4: P/T DNA (25-nt primer / 38-nt template) (dsDNA)
DNA 1: CTGCACGAATTAAGCAATTCGTAATCATGGTCATAGCT
DNA 2: AGCTATGACCATGATTACGAATTGC
modifications: primer 3'-terminal dideoxycytidine (ddC)
On to B4, for which the binding result in data set [5] and in data set [6] was “binds” each time.
